Data published in patent publication US20240336701A1 (Novartis, published 2024).
Residue numbers refer to the chain shown, from its start.

T1: human ENTPD2, full length, on cells (human, UniProt Q9Y5L3 1-495)
T1 sequence: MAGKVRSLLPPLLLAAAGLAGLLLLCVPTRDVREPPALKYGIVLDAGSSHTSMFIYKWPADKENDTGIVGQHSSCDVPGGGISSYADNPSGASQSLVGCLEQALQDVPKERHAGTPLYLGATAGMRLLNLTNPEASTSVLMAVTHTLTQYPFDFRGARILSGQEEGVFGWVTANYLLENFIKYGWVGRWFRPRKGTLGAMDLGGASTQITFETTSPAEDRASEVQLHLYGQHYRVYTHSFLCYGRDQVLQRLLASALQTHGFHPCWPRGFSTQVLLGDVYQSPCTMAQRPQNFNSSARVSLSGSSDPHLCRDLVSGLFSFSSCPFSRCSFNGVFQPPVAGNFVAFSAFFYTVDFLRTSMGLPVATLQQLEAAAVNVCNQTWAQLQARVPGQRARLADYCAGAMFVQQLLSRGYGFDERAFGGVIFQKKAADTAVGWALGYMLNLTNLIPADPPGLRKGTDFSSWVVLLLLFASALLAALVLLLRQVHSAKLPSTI

T2: cynomolgus ENTPD2, full length, on cells (cynomolgus macaque, UniProt Q9Y5L3 1-495 (human entry))
T2 chain: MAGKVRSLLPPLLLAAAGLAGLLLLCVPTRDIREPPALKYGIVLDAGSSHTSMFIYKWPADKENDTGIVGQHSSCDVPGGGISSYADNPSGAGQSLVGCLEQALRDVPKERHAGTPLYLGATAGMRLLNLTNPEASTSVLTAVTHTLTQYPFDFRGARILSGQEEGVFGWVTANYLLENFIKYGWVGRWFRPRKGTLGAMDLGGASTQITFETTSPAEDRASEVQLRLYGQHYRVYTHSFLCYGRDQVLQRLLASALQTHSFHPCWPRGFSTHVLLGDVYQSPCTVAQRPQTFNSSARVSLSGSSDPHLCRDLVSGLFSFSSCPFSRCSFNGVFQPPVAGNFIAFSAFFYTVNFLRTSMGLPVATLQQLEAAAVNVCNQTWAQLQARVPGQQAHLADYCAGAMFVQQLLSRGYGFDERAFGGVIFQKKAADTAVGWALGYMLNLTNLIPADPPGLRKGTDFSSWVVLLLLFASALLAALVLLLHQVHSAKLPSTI

T3: mouse ENTPD2, full length, on cells (mouse, UniProt O55026 1-495)
T3 sequence: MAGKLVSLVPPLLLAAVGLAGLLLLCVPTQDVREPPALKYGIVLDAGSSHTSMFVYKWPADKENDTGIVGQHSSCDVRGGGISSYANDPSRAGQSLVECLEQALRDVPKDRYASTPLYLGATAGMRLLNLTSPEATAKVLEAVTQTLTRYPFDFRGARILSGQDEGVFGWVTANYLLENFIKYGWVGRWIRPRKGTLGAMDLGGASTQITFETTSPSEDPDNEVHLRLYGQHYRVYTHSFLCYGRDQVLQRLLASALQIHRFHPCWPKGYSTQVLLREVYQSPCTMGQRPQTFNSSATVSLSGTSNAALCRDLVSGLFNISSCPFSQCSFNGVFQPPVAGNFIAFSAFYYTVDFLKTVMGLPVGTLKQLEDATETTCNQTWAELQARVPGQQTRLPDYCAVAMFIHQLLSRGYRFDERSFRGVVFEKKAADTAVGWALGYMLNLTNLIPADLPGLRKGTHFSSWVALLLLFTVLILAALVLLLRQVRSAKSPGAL

B1: ANTI-HUMAN ENTPD2 MAB21 (antibody, human IgG1, kappa, V domains shown)
VH: EVQLQQSGPELVKPGASVKISCKTSGYTFTEYTMHWVKQSHGKSLEWIGGINPNNGITTYNQKFKGKATLTVDKSSSTAYMDLRSLTSEGSAVYYCARRGFPIYYYGTSLYYFDYWGQGTTLTVSS
VL: QIVLTQSPAIMSASLGEEITLTCSASSSVSYMHWYQQRSGTSPKLLIYTTSNLASGVPSRFSGSGSGTFYSLTISSVEAEDAADYYCHQWSSYPWTFGGGTKLEIKR
B2: ANTI-HUMAN ENTPD2 MAB17 (antibody, human IgG1, kappa, V domains shown)
VH: EVQLQQFGAELVKPGASVKISCKASGYTFTDYNMDWVKQSHGKSLEWIGDINPKYDISTYNQQFKGKATLTVDKSSSTAYMELRSLTSEDTAVYYCARRGFFLYYGINYYYFDVWGAGTTVTVSS
VL: B1 VL with M32I, R38K, K44T, T49S
B3: ANTI-HUMAN ENTPD2 MAB1 (antibody, human IgG1, kappa, V domains shown)
VH: EVQLVQSGAEVKKPGESLKISCKASGYTFTDYNMDWVRQMPGKGLEWMGDINPKYDISTYNQQFKGQVTISADKSIRTAYLQWSSLKASDTAMYYCARRGFFLYYGINYYYFDVWGQGTLVTVSS
VL: DIQLTQSPSSLSASVGDRVTITCSASSSVSYIHWFQQKPGKAPKLLIYSTSNLASGVPSRFSGSGSGTFFTLTISSLQPEDFATYFCHQWSSYPWTFGQGTKVEIKR
B4: ANTI-HUMAN ENTPD2 MAB16 (antibody, human IgG1, kappa, V domains shown)
VH: DIQLQESGPGLVKPSQSLSLTCSVTGYSITSGYYWNWIRQFPGNKLEWMGYISYDGDNNYNPSLKNRISITRDTSKNQFFLKLSSVTTEDTATYYCAGGYYRYGLSYYYVMDYWGQGTSVTVSS
VL: DTVLTQSPASLAVSLGQRATISCKASQSVDYDGNSYMNWYQQKPGQPPKLLIYAASNLESGIPARFSGSGSGTDFTLNIHPVEEEDAATYYCQQSNEDPPTFGGGTKLEIKR
B5: ANTI-mouse ENTPD2 MAB13 (antibody, mouse IgG2a, kappa, V domains shown)
VH: QVQLVQSGAELKQPGQSVKISCKASGYTFTHYGMNWVKQAPGQGLKWMGWINTDTGNPTYADDFKGRFVFSLDTSVSTAYLQISNLKNEDTATYYCVRYGTLYSGYGFFFDSWGQGTLVTVSS
VL: DIMMTQSPSSLSVSAGEKATITCKSSQSLFNSNTNKNYLNWYLQKPGQSPKLLFYYASTRHTGVPDRFIGSGSGTDFTLTITSVQDEDLADYYCQQWYSYPWTFGPGTKLEIKR
notes: also called Anti-ENTPD2 mAb13
B6: ANTI-mouse ENTPD2 MAB14 (antibody, mouse IgG2a, kappa, V domains shown)
VH: B5 VH with T30W
VL: B5 VL
B7: ANTI-mouse ENTPD2 MAB15 (antibody, mouse IgG2a, kappa, V domains shown)
VH: B5 VH with T30H
VL: B5 VL

How the values were obtained:
[1] = molecular target: recombinant human ENTPD2 extracellular domain (residues 29-462) with C-terminal Avi-His6 tag (human, UniProt Q9Y5L3 29-462); assay: cell-based or functional assay
[2] = molecular target: T1, human ENTPD2, full length, on cells; assay: cell-based or functional assay
[3] = molecular target: T2, cynomolgus ENTPD2, full length, on cells; assay: cell-based or functional assay
[4] = molecular target: T1, human ENTPD2, full length, on cells; assay: flow cytometry on human ENTPD2 engineered B16LM3 clone B5 cells (human ENTPD2 expressed, endogenous mouse ENTPD2 knocked out); anti-mouse IgG-AF647 secondary. The text names the antibody as mAb13.
[5] = molecular target: T3, mouse ENTPD2, full length, on cells; assay: cell-based or functional assay
[6] = molecular target: T2, cynomolgus ENTPD2, full length, on cells; assay: FACS

Binder	ENTPD2 Biochemical Assay at 1 uM ATP IC50 [1] [nM]	Human ENTPD2 NIH/3T3 Assay % inhibition [2] [%]	Human ENTPD2 NIH/3T3 Assay IC50 [2] [nM]	RKO Assay % inhibition [2] [%]	RKO Assay IC50 [2] [nM]	Cyno ENTPD2 NIH/3T3 Assay % inhibition [3] [%]	Cyno ENTPD2 NIH/3T3 Assay IC50 [3] [nM]	binding result [4]	ENTPD2 Functional Assay IC50 (nM), mouse ENTPD2 NIH/3T3 cells [5] [nM]	binding result [6]
B1	0.87									
B2	0.27	98	0.6	96	0.5	91	1			
B3	0.52	92	1.1	97	0.8	91	4.1			
B4	77.3	30	> 133			5	> 133			
B5								no binding	2.8	no binding
B6									4.6	
B7									5.9	
